Source: patent publication US20220040297A1 (Chugai, published 2022)

Biological target: CD3ε homodimer protein (human, UniProt P07766 23-126, limits assumed)
Experiment: SPR, immobilized CD3ε homodimer;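 also: biacore T200 surface plasmon resonance at 25 °C, antibody variants flowed as analytes over amine-coupled CD3ε homodimer on a CM4 chip, variant binding amount divided by that of GLS3000 antibody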

Sequence of CD3ε homodimer protein (P07766 23-126 limits assumed): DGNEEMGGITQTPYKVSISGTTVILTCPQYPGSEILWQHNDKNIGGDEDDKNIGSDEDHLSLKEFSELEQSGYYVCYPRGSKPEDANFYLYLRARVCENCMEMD

ratio of amounts bound (vs GLS3000)	Binder
0.73	GLS3000 S25V (antibody, name in Kabat numbering, V domains shown, one-arm format as m2) VH: QVQLVESGGGVVQPGRSLRLSCAASGFTFSNAWMHWVRQAPGKGLEWVAQIKAKSNNYATYYAESVKGRFTISRDDSKNSLYLQMNSLKTEDTAVYYCRYVHYGAYYGVDAWGQGTTVTVSS VL: DIVMTQSPLSLPVTPGEPASISCRVSQSLVHSNRNTYLHWYQQKPGQAPRLLIYKVSNRFSGVPDRFSGSGSGTDFTLKISRVEAEDVGVYYCGQGTQVPYTFGQGTKLEIK
0.86	GLS3000 S26D (antibody, name in Kabat numbering, V domains shown, one-arm format as m2) VH: QVQLVESGGGVVQPGRSLRLSCAASGFTFSNAWMHWVRQAPGKGLEWVAQIKAKSNNYATYYAESVKGRFTISRDDSKNSLYLQMNSLKTEDTAVYYCRYVHYGAYYGVDAWGQGTTVTVSS VL: DIVMTQSPLSLPVTPGEPASISCRSDQSLVHSNRNTYLHWYQQKPGQAPRLLIYKVSNRFSGVPDRFSGSGSGTDFTLKISRVEAEDVGVYYCGQGTQVPYTFGQGTKLEIK
0.78	GLS3000 S26P (antibody, name in Kabat numbering, V domains shown, one-arm format as m2) VH: QVQLVESGGGVVQPGRSLRLSCAASGFTFSNAWMHWVRQAPGKGLEWVAQIKAKSNNYATYYAESVKGRFTISRDDSKNSLYLQMNSLKTEDTAVYYCRYVHYGAYYGVDAWGQGTTVTVSS VL: DIVMTQSPLSLPVTPGEPASISCRSPQSLVHSNRNTYLHWYQQKPGQAPRLLIYKVSNRFSGVPDRFSGSGSGTDFTLKISRVEAEDVGVYYCGQGTQVPYTFGQGTKLEIK
1.03	GLS3000 S27aG (antibody, name in Kabat numbering, V domains shown, one-arm format as m2) VH: QVQLVESGGGVVQPGRSLRLSCAASGFTFSNAWMHWVRQAPGKGLEWVAQIKAKSNNYATYYAESVKGRFTISRDDSKNSLYLQMNSLKTEDTAVYYCRYVHYGAYYGVDAWGQGTTVTVSS VL: DIVMTQSPLSLPVTPGEPASISCRSSQGLVHSNRNTYLHWYQQKPGQAPRLLIYKVSNRFSGVPDRFSGSGSGTDFTLKISRVEAEDVGVYYCGQGTQVPYTFGQGTKLEIK
0.74	GLS3000 S26E (antibody, name in Kabat numbering, V domains shown, one-arm format as m2) VH: QVQLVESGGGVVQPGRSLRLSCAASGFTFSNAWMHWVRQAPGKGLEWVAQIKAKSNNYATYYAESVKGRFTISRDDSKNSLYLQMNSLKTEDTAVYYCRYVHYGAYYGVDAWGQGTTVTVSS VL: DIVMTQSPLSLPVTPGEPASISCRSEQSLVHSNRNTYLHWYQQKPGQAPRLLIYKVSNRFSGVPDRFSGSGSGTDFTLKISRVEAEDVGVYYCGQGTQVPYTFGQGTKLEIK
0.81	GLS3000 S27aE (antibody, name in Kabat numbering, V domains shown, one-arm format as m2) VH: QVQLVESGGGVVQPGRSLRLSCAASGFTFSNAWMHWVRQAPGKGLEWVAQIKAKSNNYATYYAESVKGRFTISRDDSKNSLYLQMNSLKTEDTAVYYCRYVHYGAYYGVDAWGQGTTVTVSS VL: DIVMTQSPLSLPVTPGEPASISCRSSQELVHSNRNTYLHWYQQKPGQAPRLLIYKVSNRFSGVPDRFSGSGSGTDFTLKISRVEAEDVGVYYCGQGTQVPYTFGQGTKLEIK
1	GLS3000 S27aI (antibody, name in Kabat numbering, V domains shown, one-arm format as m2) VH: QVQLVESGGGVVQPGRSLRLSCAASGFTFSNAWMHWVRQAPGKGLEWVAQIKAKSNNYATYYAESVKGRFTISRDDSKNSLYLQMNSLKTEDTAVYYCRYVHYGAYYGVDAWGQGTTVTVSS VL: DIVMTQSPLSLPVTPGEPASISCRSSQILVHSNRNTYLHWYQQKPGQAPRLLIYKVSNRFSGVPDRFSGSGSGTDFTLKISRVEAEDVGVYYCGQGTQVPYTFGQGTKLEIK
0.79	GLS3000 S27aD (antibody, name in Kabat numbering, V domains shown, one-arm format as m2) VH: QVQLVESGGGVVQPGRSLRLSCAASGFTFSNAWMHWVRQAPGKGLEWVAQIKAKSNNYATYYAESVKGRFTISRDDSKNSLYLQMNSLKTEDTAVYYCRYVHYGAYYGVDAWGQGTTVTVSS VL: DIVMTQSPLSLPVTPGEPASISCRSSQDLVHSNRNTYLHWYQQKPGQAPRLLIYKVSNRFSGVPDRFSGSGSGTDFTLKISRVEAEDVGVYYCGQGTQVPYTFGQGTKLEIK
